{"source": "paper PMC5505973", "test_system": "Tal7 (His-Tal7) (Xanthomonas oryzae pv. oryzicola RS105)", "test": "MST"}
{"substance": "Os09g29100 promoter MST fragment", "values": [{"measurement": "Kd", "result": 2.26, "unit": "µM"}]}
{"substance": "Os12g42970 promoter MST fragment", "values": [{"measurement": "Kd", "result": 2.93, "unit": "µM"}]}
